Experimental data from publication PMC3268813 (Scientific Reports, 2012).
Substitutions are numbered along the chain they refer to. Numbers in names are those of the source. One block for each binder: values may come before it.

What was measured:
SEC = biological target: the molecule itself; test: SEC
GST-tagged chicken CK2α = biological target: T1, GST-tagged chicken CK2α (chicken, UniProt P21868 1-391); test: pull-down
T1 sequence: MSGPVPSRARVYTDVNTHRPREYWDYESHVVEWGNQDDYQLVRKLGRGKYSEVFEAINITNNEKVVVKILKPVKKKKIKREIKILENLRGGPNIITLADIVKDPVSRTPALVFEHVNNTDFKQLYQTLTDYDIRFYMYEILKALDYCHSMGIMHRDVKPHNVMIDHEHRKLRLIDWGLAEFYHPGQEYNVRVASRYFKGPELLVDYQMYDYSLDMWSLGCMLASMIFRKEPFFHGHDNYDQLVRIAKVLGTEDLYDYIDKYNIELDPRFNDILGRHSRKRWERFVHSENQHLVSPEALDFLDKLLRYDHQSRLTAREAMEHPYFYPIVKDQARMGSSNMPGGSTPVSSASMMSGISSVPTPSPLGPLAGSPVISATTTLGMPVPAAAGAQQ

[1] = biological target: T2, GST-tagged chicken CK2α kinase dead (K68A mutant) (chicken, UniProt P21868 1-391, K68A); test: pull-down
T2 sequence: T1 sequence with K68A

binding result (GST-tagged chicken CK2α): binds
binding result [1]: binds
B1: CRN2 wild-type C-terminal polypeptide (aa300-474), His6-tagged (domain or fragment)
chain: PYVHYLNTFSSKEPQRGMGYMPKRGLDVNKCEIARFFKLHERKCEPIIMTVPRKSDLFQDDLYPDTAGPEAALEAEEWFEGKNADPILISLKHGYIPGKNRDLKVVKKNILDSKPTANKKCDLISIPKKTTDTASVQNEAKLDEILKEIKSIKDTICNQDERISKLEQQMAKIAA
stoichiometry N (SEC): 3

B2: CRN2 S463A phospho-resistant C-terminal polypeptide (aa300-474), His6-tagged (domain or fragment)
chain: B1 chain with S164A
stoichiometry N (SEC): 3

binding result (GST-tagged chicken CK2α): binds
binding result [1]: binds
B3: CRN2 S463D phosphomimetic C-terminal polypeptide (aa300-474), His6-tagged (domain or fragment)
chain: B1 chain with S164D
stoichiometry N (SEC): 3
